Measured values taken from publication PMC5507294 (PLoS ONE, 2017).

Legend:
[1] = biological target: T1, PP2A catalytic subunit (PP2Ac) (human (endogenous in HECs), UniProt P67775 1-309); test: co-IP; GSK-3β, PR55α or PP2Ac immunoprecipitated (antibody with protein A or protein G agarose, 90 min at 4°C) from RIPA lysates of HECs with equal amounts of protein; immunoblot for β-catenin; cells 3 d in KGM or in CR culture (F+Y+J2); details: partners not purified
T1 construct: catalytic (C) subunit of protein phosphatase 2A, endogenous in primary human ectocervical cells (HECs); also called PP2A C subunit; source: endogenous, lysate of primary human ectocervical cells (HECs) in RIPA buffer
T1 sequence (P67775 whole entry): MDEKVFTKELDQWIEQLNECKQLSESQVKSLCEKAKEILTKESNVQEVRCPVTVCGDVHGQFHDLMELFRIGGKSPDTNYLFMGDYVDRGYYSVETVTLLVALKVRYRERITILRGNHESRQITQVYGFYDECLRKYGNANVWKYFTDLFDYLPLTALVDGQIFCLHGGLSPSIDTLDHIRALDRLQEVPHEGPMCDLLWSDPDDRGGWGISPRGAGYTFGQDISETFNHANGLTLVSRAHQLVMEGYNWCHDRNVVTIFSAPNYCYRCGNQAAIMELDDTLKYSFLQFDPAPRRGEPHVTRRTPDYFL

[2] = biological target: T2, PR55α, the α isoform of the 55 kDa B-type regulatory subunit of PP2A (human (endogenous in HECs), UniProt P63151 1-447); test: as above; details: partners not purified
T2 construct: PR55α, α isoform of the 55 kDa B-type regulatory subunit of protein phosphatase 2A, endogenous in primary human ectocervical cells (HECs); also called PP2A regulatory subunit; source: endogenous, lysate of primary human ectocervical cells (HECs) in RIPA buffer
T2 sequence (looked up): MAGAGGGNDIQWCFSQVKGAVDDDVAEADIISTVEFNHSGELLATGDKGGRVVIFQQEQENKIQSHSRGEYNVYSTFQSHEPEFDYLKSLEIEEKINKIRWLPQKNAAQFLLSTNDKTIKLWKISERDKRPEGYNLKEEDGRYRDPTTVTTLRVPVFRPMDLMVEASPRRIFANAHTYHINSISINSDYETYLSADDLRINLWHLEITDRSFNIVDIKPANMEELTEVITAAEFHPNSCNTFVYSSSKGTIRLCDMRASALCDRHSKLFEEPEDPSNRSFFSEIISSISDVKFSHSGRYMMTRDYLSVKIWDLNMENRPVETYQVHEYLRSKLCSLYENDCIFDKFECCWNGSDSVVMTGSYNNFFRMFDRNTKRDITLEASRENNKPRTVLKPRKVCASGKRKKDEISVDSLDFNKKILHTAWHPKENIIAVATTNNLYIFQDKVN

B1: β-catenin (natural protein, human (endogenous in HECs), UniProt P35222 1-781, looked up)
chain: MATQADLMELDMAMEPDRKAAVSHWQQQSYLDSGIHSGATTTAPSLSGKGNPEEEDVDTSQVLYEWEQGFSQSFTQEQVADIDGQYAMTRAQRVRAAMFPETLDEGMQIPSTQFDAAHPTNVQRLAEPSQMLKHAVVNLINYQDDAELATRAIPELTKLLNDEDQVVVNKAAVMVHQLSKKEASRHAIMRSPQMVSAIVRTMQNTNDVETARCTAGTLHNLSHHREGLLAIFKSGGIPALVKMLGSPVDSVLFYAITTLHNLLLHQEGAKMAVRLAGGLQKMVALLNKTNVKFLAITTDCLQILAYGNQESKLIILASGGPQALVNIMRTYTYEKLLWTTSRVLKVLSVCSSNKPAIVEAGGMQALGLHLTDPSQRLVQNCLWTLRNLSDAATKQEGMEGLLGTLVQLLGSDDINVVTCAAGILSNLTCNNYKNKMMVCQVGGIEALVRTVLRAGDREDITEPAICALRHLTSRHQEAEMAQNAVRLHYGLPVVVKLLHPPSHWPLIKATVGLIRNLALCPANHAPLREQGAIPRLVQLLVRAHQDTQRRTSMGGTQQQFVEGVRMEEIVEGCTGALHILARDVHNRIVIRGLNTIPLFVQLLYSPIENIQRVAAGVLCELAQDKEAAEAIEAEGATAPLTELLHSRNEGVATYAAAVLFRMSEDKPQDYKKRLSVELTSSLFRTEPMAWNETADLGLDIGAQGEPLGYRQDDPSYRSFHSGGYGQDALGMDPMMEHEMGGHHPGADYPVDGLPDLGHAQDLMDGLPPGDSNQLAWFDTDL
notes: β-catenin, endogenous in primary human ectocervical cells (HECs); Endogenous protein; its phosphorylation state in the co-precipitate was not determined; source: endogenous, lysate of primary human ectocervical cells (HECs) in RIPA buffer
With B1 the “fold more co-precipitated in CR cells than in KGM” value [1] was 3.8 fold and the “fold more co-precipitated in CR cells than in KGM” value [2] was 25 fold.
